Assay: soluble fraction after stress (log2 fold change); higher = more stays soluble; pooled small domains, quantitative proteomics
Conditions: stress: 50 degC
Method in brief: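 Each library was heated to 50°C as a stress step. The libraries, made up of small protein domains, were pooled and analysed at high throughput by quantitative proteomics. The reported value is the base-two logarithm of the fold change in each protein's soluble amount after stress, taken as a measure of aggregation propensity. The higher the value, the more protein stays in solution.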

First: HMGELDFYEEMRDDYLTGKIWNVGEIVEAKGMIGEIVRKGTNYISFVTDDNKVHKAWLHEIKL
Second: HMIDIGSKIKKLRSKKSIEIGKKYTGAMLANELGISRSYLGDIESGRTVPNEIILGKIADIFDVDIYELIG
The “soluble fraction (log2)” value of the first is lower: -0.634 for the first, -0.256 for the second.

Compared with “HMKEIKRLVELSPGRYFIEGATNIRVFGINGSLLLDTKGETVDLSDLAKGVYLLKTDGVTYKVL”, “HMSFSPYLVRVSITDLNIRKGPGTNYAKTGKFTGKGVFTIVEMQTGKGSDTGWGRLKSGAGWISLDYTEKI” is lower in “soluble fraction (log2)” value: -0.543 for the first, -3 for the second.

“HMKIDELKAYLFQSVRVKNPHTQEYDTLKIIELNYYQDKIKAKLKNSDDDYITEMIFESIKHLQNFLG” and “HMFQLSNEAKQQVLGELKRYESKQSAVLPALYIGQKDNKGHITPEVIRELSKVMDIPESQINEVFTFYTM” are within 0.2 log units of each other in “soluble fraction (log2)” value: -0.298 for the first, -0.119 for the second.

“HMTYPGSIALVNPKHEAFVQHYVATSGSRGQAAKLAGVTTTTARNLLQDVEATARIRYLNAQQFQ” and “HMIGVIVDEVDPDSSLKSGDIITEVNREVILNIDDFVGLVEQIQKTGRSSLLLKILRDKKSLWVTIQFV” are within 0.2 log units of each other in “soluble fraction (log2)” value: -0.107 for the first, 0.0885 for the second.

“HMEKSSALRAKEAFMALYHDGKFKPGTKIPSESNMAELLGVSRETWRKALALLRGDGVLYSKHGSGTYLLE” and “HMNPSPYLRRHLSGDWGDLDEDDRRSNDAALASGEARLLSSYQVDPDLKLWIITEWDRSVTTLLLPSE” are within 0.2 log units of each other in “soluble fraction (log2)” value: 0.11 for the first, -0.0802 for the second.

Compared with “HMLIGLNETESLVLDALIANPMRIDQVSAMLKKDVATTLKFLGGLSVRGLVETLFGGRFAPTKIALHARS”, “HMNTRWDDAAQTWLRKVIEQQPVLVQISAAKRLRDQAEQRAREAGEEVVTEQHVKRAGLELGFGEP” is higher in “soluble fraction (log2)” value: -0.276 for the first, 0.0799 for the second.

First: HMDRSQRDQEQAQLIRLVQQAFDDSGQRYGAEKIRITLAEGGIRVSTKRIAAIMQELDLRSI
Second: HMTEELLNQRKETMLALLNDPTYVPMKLKELAMLLNLSRDQRDELREVMESLEQDGKVILTKRGKYKIP
The “soluble fraction (log2)” value of the first is lower: -1.36 for the first, -0.269 for the second.

Compared with “HMDKPIVFLEDTKAHKSSDLQSPVYMTVPKGTIAFVIAEKGDWSQVYAGRVLDRNLASQWVRRGFS”, “HMSTSERLKQVMEVKGFNLKTFSEQADIPYRTLQNYILTNREPSAESLAKLHSQLGINLNWLMSGKGEMF” is lower in “soluble fraction (log2)” value: 0.227 for the first, -0.283 for the second.

Compared with “HMVTVNAFGKSGPEPAAMTKEALAKGADEVRVIVDSPTAAASVRDFLIGAGLRVQLQDDEGQLIVVGEKK”, “HMKKVKVPNVVGMSLKEARDALSAVNIAVNQVAGSVEDKSVVTEQSLKAGDEVDEGSSLNLTTEYK” is lower in “soluble fraction (log2)” value: 0.215 for the first, -0.156 for the second.

Compared with “HMPTSLPGIDIDEKNIVSSTGALSFKKVPKKLAIIGGGYIGLEMGSVWSRLGSSVTVIEYLNFITPG”, “HMEEIIPIRFLRHRVKRRETIFGLTQKYNITEDQLKRYNTRLYSEALERKMVLQIPVFPEVDED” is lower in “soluble fraction (log2)” value: -0.00687 for the first, -2.31 for the second.

“HMKPGYVIQVNGTVTKIQSGLVYVKTPAAQYTLMRKYAPADAAVGDRVSLWINEEGMVIDVHGK” and “HMLKEGIKEKINQLQVYADKNDNIIWYDRVVDILSDKDDSVTDEMIEAAIRTLEEAGISVERKQ” are within 0.2 log units of each other in “soluble fraction (log2)” value: -0.0092 for the first, 0.0259 for the second.

First: HMSAMKYTSEVFQRLSRGQFISSNSIDAETRAIYSDIEENQQEYEDYFSKIDFLLSSGDGFYYFSRK
Second: HMTKASYKITTPSGVNVREGAGKRYAVRKAYPKGKTVTVTQTKEVNGNLWGKTSDGWFAIKYQGAVYASA
The “soluble fraction (log2)” value of the first is lower: -2.4 for the first, -0.97 for the second.

Compared with “HMGGQKTREAIFDLIMTNSKITSAQIAEILGIHRSGVARHLKKLQEEGLIKREGPDNGGQWIVIK”, “HMEVTLGLGSMVRLLGEPYLGSTGRVVELPDQAERFASGLTAKVAVVERHDGELIRVPVTNLLLME” is higher in “soluble fraction (log2)” value: -0.422 for the first, -0.191 for the second.

“HMQRYFLEEAYQPSEKFELSAEAFHHIVHVMRMKPKDRVYLAFSDQQVIIAEITEITEEKVYLTEIEKEE” and “HMNNSDIDITVGKNSISINNPNRTNIIIYSSNGMLIDSSKNASYKRNLPSGIYIVKSGSSTHKVIV” are within 0.2 log units of each other in “soluble fraction (log2)” value: -0.0978 for the first, -0.148 for the second.

Compared with “HMSFMFEISVIRSQYNMQDPESKTGFYNAIAKKLLEFPEKLERDNYTEAVAREYMIPETDLKNLVNSMGG”, “HMVWMIEKDQSVILVNKLERIQVEALGKALENGNFGDRIRVINNKSGQKLLGIVESEKKIQIISKI” is lower in “soluble fraction (log2)” value: -2.17 for the first, -2.44 for the second.

Compared with “HMIPLPEDVASMRERLALTPEKADELFGLEDGSFARYEHGEEKVPFVVFQLLWLLGKYPHLIGELR”, “HMDKEPTHLHTFRLIKEGKSSEEIAEIRNITLGTVNTHLAKLIAVGELTIEQVISKHRLDYVMEAIKNSK” is higher in “soluble fraction (log2)” value: -0.818 for the first, -0.16 for the second.

Going from “HMRTIGDSVYEKIKYDIVHLTLKPGEKLSEASLAEKYGISKAPIRVALRKLQEEGLIVIRPQSGSIVSP” to “HMQDLTAQQQAILSFLKEHPKATRKEISENIPNITEDNIRYNLSQLQELGFVKSMGDSFIRIAI”, the “soluble fraction (log2)” value rises from -0.568 to 0.0658.

Compared with “HMHKLTIEEALNYKTPANAGGPYSGKPFRDIYDQRGKAAVISFAKYYLSKATPEDPMVEVYRTLLDGAMEL”, “HMSVLNLQTDIPKKYTDVLGTSVKGRLNTLVHNVIINSVDRPVIQMSEEVHEAMQGLRIFMFENVYRNPV” is higher in “soluble fraction (log2)” value: -0.875 for the first, 0.0658 for the second.

“HMATSNDTQITGSLALRFDGSGDTFTVNVNGDDKLEINTEGTVIYKPLTTAPTYVSGGLFFSSSGDFYVG” and “HMDTRQFWEQWVADEIRTFEHKDRKQLFGWFEGNKPKLGQMKKLGYGDLLTKVQTSWDEIYQQKE” are within 0.2 log units of each other in “soluble fraction (log2)” value: -0.0386 for the first, 0.124 for the second.

“HMHPVTGRIGTVTAANGLNLRADSSEYANVVATLGYGVDVTVTGERINGFYPVRVGTLSGYVSADYVSFNS” and “HMNEPSSYGYAISVALDRNGLGTVKGGTLYPLLARLEQAAHVETRWEAGDGGPGRKYYTITDSGRS” are within 0.2 log units of each other in “soluble fraction (log2)” value: -0.238 for the first, -0.201 for the second.

Compared with “HMLQLDATDRALIVATQGGLPLVPRPYQVVGEQLGISGEEVVARLRALLDAGVIRRIGAVPN”, “HMAPLAVIFPEPWRGMIAPEKLEGLTQALSLNPRPGYQHDPTRRYGVSLDGLDVRFTIDGDTLTVVEVVT” is lower in “soluble fraction (log2)” value: -0.283 for the first, -0.635 for the second.

First: HMNLDMVINKIGIVTEDIKQDKIGEVKVLGKRWSAYSNTELKKDEKVKILSIDGVKLKVEKI
Second: HMISESIPAKDALLRLLNTAYQTRTNAAGEFYFNDVPPGKYILQASVNDVEIIRENISINEN
The “soluble fraction (log2)” value of the first is higher: 0.191 for the first, -0.249 for the second.

First: HMSAEDYMEMIYRLSQENGFTRVNDLASALNVQPPSVTRMIQKLAELNLIKYEKYGVIMLQPYGIEVGRSL
Second: HMESSSQLGFELARLVESGNDEEARALVQAKELSEADERKWLYHLGNLLHAAGRPLQASAIWREVGT
The “soluble fraction (log2)” value of the first is lower: -1.91 for the first, 0.0628 for the second.

“HMENMRLILASNLRRIREERRLSLNKVSELTGVSKSMLGQIERGESNPTLQTVWKIANGLRVSLTDLTEVP” and “HMTGQHFDLEDTDGNLVYEIDSTVPLKTFYIYDAMHTEIFRMTKELLHALPTYRFYLYGEPYGVLKKQ” are within 0.2 log units of each other in “soluble fraction (log2)” value: -0.0326 for the first, -0.174 for the second.

Going from “HMIDHLPPQRAAVLAFLQRELVAGRSPSLAEIALAFGFASRNAAQKHVQALVADGLLEQATGRSRGLRLPG” to “HMVYNQYILTQSVRLREEPGISGRVIRLLETGTTVELVDTVVVNKDDYDWVWVKLSDGAVGWIIKSAIDI”, the “soluble fraction (log2)” value rises from -1.67 to -0.529.

“HMQDYISAEEAKSAALSASQVDSAGAAFSAAELGEKNGIPYYEVAFTADGLEYRYAIDAQTGTVIESSSSG” and “HMERPPHELLSDREYQTMVMIASGRTLTQIAEEMSLSPKTVSVYRARLLEKMKLKNNAELTHYALKHKLV” are within 0.2 log units of each other in “soluble fraction (log2)” value: 0.0366 for the first, 0.0152 for the second.

First: HMGGAVQIAEQIAARIKDGALRPGELLPPVRQLAAELEVNPNTVASAYARLRDAGLVATRGRAGTVVLEPP
Second: HMTDEYYSYIGKTGTTITVLRPAGIAEVEGERLNVVSEGEFIRKGAAILVKEVEGARILVEEVN
The “soluble fraction (log2)” value of the first is higher: -0.172 for the first, -0.381 for the second.

Going from “HMVPSSHNIAQKVKQIKINDLWLDVRERYIYLKNLYLSHPLEKDHPSFIVYVEAVNQIYNQYF” to “HMRPPLEWGTHGEITTRTVASGYVRASARVRLWDGELQRMTATASTASDARASLQHRIAERLRFSEL”, the “soluble fraction (log2)” value falls from 0.02 to -1.46.

“HMVEPTDFTYLKAEVETAKALKQADYTVATWKSFAGELAEAEEVIAKTDASQAEVNEALSHLQAAEKELV” and “HMNHLSYEQRLKIKEMLDGGFKKIDIARALGVHNATIYREIERGSVNGIYNPNKSEEQYRDHLSEK” are within 0.2 log units of each other in “soluble fraction (log2)” value: 0.175 for the first, 0.255 for the second.

Compared with “HMTAYEGLPVTLIIDGRVFQQNLQKMNLSVEWLRLELKKFGVTNLKEVLFASLDTEGKLFYQLKT”, “HMNMLGEQVRNIRKSRGFTLKALAEQTGLSIGYISQIERNLTDPSLSTLRKISAALDVPTYLFMG” is lower in “soluble fraction (log2)” value: 0.0485 for the first, -1.55 for the second.

Going from “HMFDTVFIVRKTSDKPLDGLRTYLNSIGDSLVIGEDDEAFKVHVHTNHPGKVLEEAITYGALQTVKIENMR” to “HMANSLLVTAQAGGQKLFNFLKRSLHAENNEIHRWIRTGQVRINKKRTKAFDIVHENDEIRIPPFALNR”, the “soluble fraction (log2)” value rises from -0.966 to -0.284.

Compared with “HMETKPTELMLEVHELRIGMFVHLDLGWMDHPFPLNRFKISTNSQIEQIKGLRLKQVKVMTALSDPTALS”, “HMDYKAELDNIIRDHLDMEGPLLPVLHAVMARFSYIPKDAIPIIARKLNLSSAEVSGVISFYHDFKKEK” is higher in “soluble fraction (log2)” value: -2.21 for the first, -0.561 for the second.

First: HMATPAFEMYKVRRGDTPAGLAKEWGFPDMASFYRINPDARSDWKRGLQLVKPMNEMAVLQATA
Second: HMRDVVVVPDLSGLTQMEALSKLDAESLNIGEINYGVSEMPEGVIFKQDPVYGTELMKGDTVDIFISGR
The “soluble fraction (log2)” value of the first is higher: -0.255 for the first, -0.527 for the second.

Compared with “HMRDDAIQQGREIVERELHRLDLAYTTLTDVLAKLEYEKLDDLYAAVGFGIRSPHSVAAAALQVERDKA”, “HMSEVPAAVLVTGGSINLREAPSTDATIIDVAQVGEKMTVLAEKNSWYQVSRGGRNVWVASWVVDPLT” is higher in “soluble fraction (log2)” value: -0.569 for the first, 0.208 for the second.

“HMQTFGTMIAALRKEQGMTQLELAEKMGVTDKAVSKWERDLSFPDVNSLPKLAEIFHVSVDEL” and “HMRQSSLRTRELLIDAARQLFARFGVEKTTMNDIAEASKRGRRTVYMYFNSKSDVFYAVVGRE” are within 0.2 log units of each other in “soluble fraction (log2)” value: -0.229 for the first, -0.212 for the second.

First: HMGAAIEYGDRGNTVLQAQRLLIARGYMAGSADGIYGRQMEQAVKRFQKEQGLPESGVVDRRTLQVLIRSR
Second: HMVAGHLQEKNGYFYIVLNYTNHEGKRKSKWITTGLTVKGNKKRAQDLLQEARKTFVPDIPT
The “soluble fraction (log2)” value of the first is higher: -0.626 for the first, -1.19 for the second.

Going from “HMNVDLLEARIPIQSHGMRLDQVVAELFPDYSRNRLAAWIKEGRLTVDGKTMKPRDRALASAHVVLEVV” to “HMEAISIYPNPTDNELHLSTSVQEVRIYNMYGIEVTRAANTDRLAVSHLPKGVYLVHADGAVLKMIK”, the “soluble fraction (log2)” value falls from -0.18 to -1.26.

In the case of “HMKRLLLPGDLAGVRRHLLDRENSFHILRVLRLARGSTIEAMDDAGNRFSATLAGVKAGRALFDLAAKI”, the “soluble fraction (log2)” value is reported as -1.54.
